Data reported in patent US20260150817A1 (LEVERAGEN, published 2026).
Positions count from the first letter of the chain named. Read-outs that look alike come from different tables or passages of the source.

Legend:
[1] = target: T1, SARS-Cov2 Spike Active Trimer SAT (R&D Systems; Catalog No. 10549-CV) (SARS-CoV-2, UniProt P0DTC2 16-1211); assay: SPR (Carterra)
T1 construct: also called SARS-COV2 Spike Active Trimer protein; recombinant SAT protein

[2] = target: T1, SARS-Cov2 Spike Active Trimer SAT (R&D …)
[3] = target: T1, SARS-Cov2 Spike Active Trimer SAT (R&D …); remark: listed apart in the source
[4] = target: T1, SARS-Cov2 Spike Active Trimer SAT (R&D …); assay: ELISA, serially diluted purified Nb-Fc against SAT antigen

B1: M320_5 Nb-Fc (Fc fusion)
chain: EVQLQQSGPELVKPGASVKMSCKASGYTFTDYYIKWEKQSHGKSLEWIGDINPKNGETFYNQQFKGKATLTVDKSSSTAYMQLNSLTSEDSAVYYCARKEYGDYGYAVDYWGQGTSVTVSS
notes: also called LVGN-S3205
Question: Which Kd [1] does the source give for B1 here?
Answer: The Kd was 3.17 nM.

Question: What about the Kd [2] of the same binder?
Answer: Its Kd is 1.06 nM.

Question: What about the koff [2] of the same binder?
Answer: The koff was 0.000143 s⁻¹.

Question: What about the kon [2] of the same binder?
Answer: Its kon is 135000 M⁻¹ s⁻¹.

Question: And the Kd [3]?
Answer: Its Kd is 1.21 nM.

Question: What about the EC50 [4] of the same binder?
Answer: The EC50 was 0.024 nM.

B2: M2S320_75 Nb-Fc (Fc fusion)
chain: B1 chain with I34M, E37L, S40N, K54N, E57D, Q63K, K74T, V108T
notes: also called LVGN-S32075
Question: For B2, which EC50 [4] is on record?
Answer: Its EC50 is 0.068 nM.

B3: M2S320_377 Nb-Fc (Fc fusion)
chain: B1 chain with I34V, E37K, K54N, E57D, Q63K, G66D, D103N, Y104F
notes: also called LVGN-S320377
Question: With B3 as the binder, how does the EC50 [4] read?
Answer: The EC50 was 0.097 nM.

B4: M2S521_623 Nb-Fc (Fc fusion)
chain: EVQLQQSGPELVKPGASVKISCKASGYTFTDYYMKWEKQSHGKSLEWIGDINPNNGGTRYNQKFRGKATLTVDKSSSTAYMELRSLTSEDSAVYYCARLEDDYYGYAVDYWGQGTSVTVSS
notes: also called LVGN-S521623
Question: With B4 as the binder, how does the EC50 [4] read?
Answer: The EC50 was 0.054 nM.

B5: M2S521_72 Nb-Fc (Fc fusion)
chain: B4 chain with E37A, D50H, N54V, G57D, R59S, R65K, A79V, D102G, A107T, V108M
notes: also called LVGN-S52172
Question: How did the EC50 [4] turn out when B5 was run?
Answer: The EC50 was 0.063 nM.

B6: MS521_35 Nb-Fc (Fc fusion)
chain: EVQLQQSGPELVKPGASVKISCKASGYTFTDYYMKWVKQRHGQSLEWIGNINPTNGDTNYSQNFKGKATLTVDKSSTTAYMELRSLTSEDSAVYYCARLEDGYYGYAVDYWGQGTSVTVSS
notes: also called LVGN-S52135
Question: What does the source list for B6?
Answer: Kd [1]: 5.3 nM; koff [2]: 0.000685 s⁻¹; kon [2]: 75300 M⁻¹ s⁻¹; Kd [3]: 9.09 nM; EC50 [4]: 0.024 nM

B7: M2S521_378 Nb-Fc (Fc fusion)
chain: B4 chain with E37V, N54K, R59N, R65K, G66D, D102G, V108I, G112S
notes: also called LVGN-S521378
Question: How did the EC50 [4] turn out when B7 was run?
Answer: Its EC50 is 0.081 nM.

B8: M2S521_193 Nb-Fc (Fc fusion)
chain: B4 chain with E37V, T58A, R65K, K67R, A97S, D102G
notes: also called LVGN-S521193
Question: How did the EC50 [4] turn out when B8 was run?
Answer: The EC50 was 0.085 nM.
